# B1: FGF8f: human recombinant FGF8 spliceform f (R&D Systems); SEQ ID NO:18 (protein)
# chain: MGSPRSALSCLLLHLLVLCLQAQEGPGRGPALGRELASLFRAGREPQGVSQQVTVQSSPNFTQHVREQSLVTDQLSRRLIRTYQLYSRTSGKHVQVLANKRINAMAEDGDPFAKLIVETDTFGSRVRVRGAETGLYICMNKKGKLIAKSNGKGKDCVFTEIVLENNYTALQNAKYEGWYMAFTRKGRPRKGSKTRQHQREVHFMKRLPRGHHTTEQSLRFEFLNYPPFTRSLRGSQRTWAPEPR
# modifications: human FGF8f
# B2: FGF8e: human recombinant FGF8 spliceform e (R&D Systems); SEQ ID NO:17 (protein)
# chain: MGSPRSALSCLLLHLLVLCLQAQEGPGRGPALGRELASLFRAGREPQGVSQQHVREQSLVTDQLSRRLIRTYQLYSRTSGKHVQVLANKRINAMAEDGDPFAKLIVETDTFGSRVRVRGAETGLYICMNKKGKLIAKSNGKGKDCVFTEIVLENNYTALQNAKYEGWYMAFTRKGRPRKGSKTRQHQREVHFMKRLPRGHHTTEQSLRFEFLNYPPFTRSLRGSQRTWAPEPR
# modifications: human FGF8e
# B3: FGF17: human recombinant fibroblast growth factor 17 (PeproTech), FGF8 subfamily; SEQ ID NO:23 (protein)
# chain: MGAARLLPNLTLCLQLLILCCQTQGENHPSPNFNQYVRDQGAMTDQLSRRQIREYQLYSRTSGKHVQVTGRRISATAEDGNKFAKLIVETDTFGSRVRIKGAESEKYICMNKRGKLIGKPSGKSKDCVFTEIVLENNYTAFQNARHEGWFMAFTRQGRPRQASRSRQNQREAHFIKRLYQGQLPFPNHAEKQKQFEFVGSAPTRRTKRTRRPQPLT
# modifications: human FGF17
# B4: FGF8a: human recombinant FGF8 spliceform a (R&D Systems); SEQ ID NO:15 (protein)
# chain: MGSPRSALSCLLLHLLVLCLQAQHVREQSLVTDQLSRRLIRTYQLYSRTSGKHVQVLANKRINAMAEDGDPFAKLIVETDTFGSRVRVRGAETGLYICMNKKGKLIAKSNGKGKDCVFTEIVLENNYTALQNAKYEGWYMAFTRKGRPRKGSKTRQHQREVHFMKRLPRGHHTTEQSLRFEFLNYPPFTRSLRGSQRTWAPEPR
# modifications: human FGF8a
# B5: FGF21: endocrine fibroblast growth factor 21, prior-art browning factor (Fisher et al. 2012) (protein, UniProt Q9NSA1 29-209, looked up)
# Fibroblast growth factor 21: HPIPDSSPLLQFGGQVRQRYLYTDDAQQTEAHLEIREDGTVGGAADQSPESLLQLKALKPGVIQILGVKTSRFLCQRPDGALYGSLHFDPEACSFRELLLEDGYNVYQSEAHGLPLHLPGNKSPHRDPAPRGPARFLPLPGLPPALPEPPGILAPQPPDVGSSDPLSMVGPSQGRSPSYAS
# System: visceral, epididymal white adipocytes
# Assay: Ucp1 / brown adipocyte marker mRNA (qPCR) in immortalized epididymal white adipocytes treated with FGFs
# Format: cell-based, murine
# Conditions: epididymal adipocytes; six days of differentiation; FGF8a, b, e, f 25.0 ng/ml, FGF17 10.0 ng/ml
# Protocol: (§1) Screening paracrine FGFs for a browning potential. A, B—Screening of all paracrine FGFs in immortalized white adipocytes. Subcutaneous, inguinal and visceral, epididymal white adipocytes were grown to confluence in Dulbecco's modified Eagle's medium with 4.5 g/l glucose, supplemented with 20 nmol/l insulin, 1 nmol/l triiodothyronine, 20% fetal bovine serum, and penicillin/streptomycin. Upon reaching confluence, differentiation was induced with 500 mmol/l isobutylmethylxanthine, 250 mmol/l indomethacine, and 2 mg/ml dexamethasone for 24 hours. Subsequently, members of the paracrine FGF protein family were added to the medium for the following six days. The medium and the FGF indicated were changed every 48 hours. Untreated cells served as a negative control. At the end of the differentiation process total RNA was isolated using TRIzol reagents, RNA quality and concentration was measured by photometric analysis, and 5 μg of total RNA was reverse-transcribed to cDNA. Finally, quantitative analysis of UCP-1 mRNA expression was performed. A bar graph analysis including the SEM of 3 to 6 independent experiments is shown. […] B—Four different splicing forms of the Fgf8 gene were compared by quantifying Ucp1 mRNA expression in fully differentiated white adipocytes. UCP-1 mRNA abundance is shown in percent of the FGF8b value. Fgf8b and Fgf8f were able to increase expression in epididymal adipocytes. C—Illustration depicting the different exon usage that characterizes the FGF8 spliceforms a, b, e, and f.
# (§2) Dose dependency of Ffg8b action. A, B—Subcutaneous, inguinal and visceral, epididymal white adipocytes were grown to confluence in Dulbecco's modified Eagle's medium with 4.5 g/l glucose, supplemented with 20 nmol/l insulin, 1 nmol/l triiodothyronine, 20% fetal bovine serum, and penicillin/streptomycin. Upon reaching confluence, differentiation was induced with 500 mmol/l isobutylmethylxanthine, 250 mmol/l indomethacine, and 2 mg/ml dexamethasone for 24 hours. Subsequently, FGF8b in five indicated concentrations were added to the medium for the following six days. The medium and the FGF8b were changed every 48 hours. Untreated cells served as a negative control. At the end of the differentiation process total RNA was isolated using TRIzol reagents, RNA quality and concentration was measured by photometric analysis, and 5 μg of total RNA was reverse-transcribed to cDNA. Finally, quantitative analysis of UCP-1 mRNA expression was performed. FGF8b induces Ucp1 mRNA abundance in inguinal and epididymal adipocytes. Epididymal fat cells were more dose dependently responsive to Fgf8b treatment as compared to inguinal cells. The latter were responsive to FGF8b treatment above the threshold indicated. B—The absolute increase of several genes typical for brown fat cells.
# (§3) Treatment timecourse experiment. A, B—Subcutaneous, inguinal and visceral, epididymal white adipocytes were grown to confluence (prolif. denotes proliferation period) in Dulbecco's modified Eagle's medium with 4.5 g/l glucose, supplemented with 20 nmol/l insulin, 1 nmol/l triiodothyronine, 20% fetal bovine serum, and penicillin/streptomycin. Upon reaching confluence, differentiation was induced with 500 mmol/l isobutylmethylxanthine, 250 mmol/l indomethacine, and 2 mg/ml dexamethasone for 24 hours (induction). Subsequently, the cells were cultured for another six days (differentiation). At the end of the differentiation process total RNA was isolated using TRIzol reagents, RNA quality and concentration was measured by photometric analysis, and 5 μg of total RNA was reverse-transcribed to cDNA. Finally, quantitative analysis of UCP-1 mRNA expression was performed. Untreated cells served as a negative control. A bar graph analysis including the SEM of 5 independent experiments is shown. A—Epididymal fat cells were treated with FGF8b during different time windows as given by black squares indicating one day of treatment each. […]
row,Molecule,"Induction of Ucp1 mRNA expression (browning potential), screening of paracrine FGFs and FGF8 spliceforms"
1,B1,effective
2,B2,did not induce Ucp1 mRNA expression
3,B3,increased expression of Ucp1 mRNA expression
4,B4,did not induce Ucp1 mRNA expression

# System: subcutaneous, inguinal white adipocytes
# Assay: Ucp1 / brown adipocyte marker mRNA (qPCR) in immortalized inguinal white adipocytes treated with FGFs
# Format: cell-based, murine
# Conditions: inguinal adipocytes; six days of differentiation; FGF8a, b, e, f 25.0 ng/ml, FGF17 10.0 ng/ml
# Protocol: as §1, §2, §3
row,Molecule,"Induction of Ucp1 mRNA expression (browning potential), screening of paracrine FGFs and FGF8 spliceforms"
1,B1,only effective in inducing Ucp1 expression in adipocytes of epididymal adipocytes
2,B2,did not induce Ucp1 mRNA expression
3,B3,strongly induce Ucp1 mRNA expression
4,B4,did not induce Ucp1 mRNA expression

# System: subcutaneous white adipose tissue
# Assay: not given
# Conditions: cited from earlier work
row,Molecule,Appearance of brown-like adipocytes
1,B5,increases the appearance of brown-like adipocytes
